# According to the supplement of paper PMC9112550, “Optimization of the antimicrobial peptide Bac7 by deep mutational scanning” (BMC Biology, 2022):
# Test system: Escherichia coli TOP10
# Test: shrunken log2 fold change of peptide-encoding DNA abundance (4.5 h post-induction vs induction); higher = less antimicrobial activity (less host growth inhibition)
# Conditions: time post-induction: 4.5 h; library: site-saturation at positions 5, 18, 19, 20
# 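Also: peptides expressed intracellularly from a pBAD plasmid library in pooled LB shake-flask culture, induced with 0.3% L-arabinose, DNA abundance read by NGS, three biological replicates, DESeq2 with apeglm shrinkage.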
row,Sequence,shrunken log2 fold change
1,RRIRVRPPRLPRPRPRPLCQPRP,0.258
2,RRIRARPPRLPRPRPRPSLIPRP,-0.0273
3,RRIRKRPPRLPRPRPRPKILPRP,0.362
4,RRIRMRPPRLPRPRPRPGVAPRP,1.02
5,RRIRKRPPRLPRPRPRPPANPRP,0.48
6,RRIRQRPPRLPRPRPRPNGSPRP,-0.00154
7,RRIRFRPPRLPRPRPRPDHAPRP,-0.102
8,RRIRDRPPRLPRPRPRPCQEPRP,0.211
9,RRIRIRPPRLPRPRPRPLCQPRP,0.127
10,RRIRWRPPRLPRPRPRPHLQPRP,0.103
11,RRIRHRPPRLPRPRPRPLVAPRP,-0.103
12,RRIRRRPPRLPRPRPRPYLEPRP,-0.298
13,RRIRTRPPRLPRPRPRPSQCPRP,-0.239
14,RRIRLRPPRLPRPRPRPHGHPRP,-0.126
15,RRIRKRPPRLPRPRPRPCQNPRP,0.412
16,RRIRTRPPRLPRPRPRPEGQPRP,0.0344
17,RRIRNRPPRLPRPRPRPWFNPRP,-0.448
18,RRIRQRPPRLPRPRPRPFPKPRP,0.0141
19,RRIRMRPPRLPRPRPRPNNNPRP,-0.134
20,RRIRMRPPRLPRPRPRPVHFPRP,0.602
21,RRIRWRPPRLPRPRPRPKPHPRP,0.351
22,RRIRCRPPRLPRPRPRPMRMPRP,0.22
23,RRIRARPPRLPRPRPRPDQFPRP,0.389
24,RRIRGRPPRLPRPRPRPTAMPRP,2.78
25,RRIRYRPPRLPRPRPRPATFPRP,-0.681

row,Sequence,shrunken log2 fold change
1,RRIRCRPPRLPRPRPRPTPHPRP,0.821
2,RRIRPRPPRLPRPRPRPHKCPRP,-0.19
3,RRIRWRPPRLPRPRPRPVQTPRP,0.459
4,RRIRLRPPRLPRPRPRPIERPRP,-0.155
5,RRIRVRPPRLPRPRPRPNSTPRP,-0.515
6,RRIRLRPPRLPRPRPRPAQLPRP,0.166
7,RRIRQRPPRLPRPRPRPVPWPRP,-0.01
8,RRIRDRPPRLPRPRPRPQYDPRP,-0.0265
9,RRIRVRPPRLPRPRPRPGYFPRP,-0.366
10,RRIRVRPPRLPRPRPRPLTRPRP,0.196
11,RRIRHRPPRLPRPRPRPECNPRP,-0.0866
12,RRIRSRPPRLPRPRPRPHKWPRP,-0.296
13,RRIRDRPPRLPRPRPRPLKNPRP,0.0245
14,RRIRIRPPRLPRPRPRPEMQPRP,0.128
15,RRIRARPPRLPRPRPRPDWIPRP,-0.0382
16,RRIRQRPPRLPRPRPRPVYIPRP,-0.214
17,RRIRERPPRLPRPRPRPTFRPRP,-0.00937
18,RRIRKRPPRLPRPRPRPERAPRP,0.892
19,RRIRWRPPRLPRPRPRPSTCPRP,-0.457
20,RRIRQRPPRLPRPRPRPKYRPRP,-0.0976
21,RRIRKRPPRLPRPRPRPSLTPRP,-0.0632
22,RRIRERPPRLPRPRPRPAHKPRP,-0.154
23,RRIRARPPRLPRPRPRPQRKPRP,0.365
24,RRIRIRPPRLPRPRPRPPLYPRP,-0.331
25,RRIRPRPPRLPRPRPRPVYEPRP,-0.0626

row,Sequence,shrunken log2 fold change
1,RRIRERPPRLPRPRPRPGCRPRP,0.0043
2,RRIRMRPPRLPRPRPRPSRFPRP,0.253
3,RRIRLRPPRLPRPRPRPTQVPRP,0.452
4,RRIRHRPPRLPRPRPRPNRFPRP,-0.00088
5,RRIRARPPRLPRPRPRPSGMPRP,0.197
6,RRIRGRPPRLPRPRPRPHRGPRP,0.0302
7,RRIRPRPPRLPRPRPRPHKLPRP,-0.109
8,RRIRPRPPRLPRPRPRPMDIPRP,-0.158
9,RRIRQRPPRLPRPRPRPPNEPRP,0.266
10,RRIRSRPPRLPRPRPRPFINPRP,-0.639
11,RRIRFRPPRLPRPRPRPENDPRP,0.0619
12,RRIRARPPRLPRPRPRPRKDPRP,0.173
13,RRIRYRPPRLPRPRPRPVDMPRP,-0.0154
14,RRIRTRPPRLPRPRPRPDSAPRP,0.0773
15,RRIRRRPPRLPRPRPRPAFVPRP,0.36
16,RRIRLRPPRLPRPRPRPLNHPRP,-0.355
17,RRIRRRPPRLPRPRPRPPKKPRP,1.12
18,RRIRPRPPRLPRPRPRPCLRPRP,-0.183
19,RRIRERPPRLPRPRPRPGNGPRP,-0.0693
20,RRIRYRPPRLPRPRPRPPDTPRP,-0.425
21,RRIRQRPPRLPRPRPRPQVSPRP,0.301
22,RRIRFRPPRLPRPRPRPNGVPRP,-0.0018
23,RRIRIRPPRLPRPRPRPGYYPRP,-0.708
24,RRIRMRPPRLPRPRPRPLFIPRP,-0.643
25,RRIRHRPPRLPRPRPRPIWCPRP,-0.0133

row,Sequence,shrunken log2 fold change
1,RRIRYRPPRLPRPRPRPMGTPRP,-0.304
2,RRIRGRPPRLPRPRPRPLIYPRP,0.105
3,RRIRTRPPRLPRPRPRPPACPRP,0.313
4,RRIRTRPPRLPRPRPRPPCQPRP,-0.215
5,RRIRLRPPRLPRPRPRPCYIPRP,-0.115
6,RRIRRRPPRLPRPRPRPECGPRP,0.938
7,RRIRKRPPRLPRPRPRPHRDPRP,-0.136
8,RRIRYRPPRLPRPRPRPHRWPRP,-0.0477
9,RRIRNRPPRLPRPRPRPVKFPRP,-0.0271
10,RRIRMRPPRLPRPRPRPKMFPRP,0.0019
11,RRIRARPPRLPRPRPRPINFPRP,0.0601
12,RRIRARPPRLPRPRPRPVRSPRP,0.345
13,RRIRFRPPRLPRPRPRPEWKPRP,0.0211
14,RRIRNRPPRLPRPRPRPVAGPRP,-0.124
15,RRIRWRPPRLPRPRPRPEQFPRP,0.32
16,RRIRFRPPRLPRPRPRPILCPRP,-0.192
17,RRIRERPPRLPRPRPRPNSMPRP,-0.864
18,RRIRLRPPRLPRPRPRPFSDPRP,0.0391
19,RRIRPRPPRLPRPRPRPNGVPRP,-0.0233
20,RRIRMRPPRLPRPRPRPWWSPRP,0.334
21,RRIRFRPPRLPRPRPRPYATPRP,-0.419
22,RRIRRRPPRLPRPRPRPTIAPRP,0.0702
23,RRIRMRPPRLPRPRPRPGNQPRP,-0.0232
24,RRIRYRPPRLPRPRPRPCMNPRP,-0.0223
25,RRIRPRPPRLPRPRPRPSCRPRP,-0.129

row,Sequence,shrunken log2 fold change
1,RRIRARPPRLPRPRPRPYEKPRP,-0.201
2,RRIRGRPPRLPRPRPRPGCHPRP,0.549
3,RRIRIRPPRLPRPRPRPTGQPRP,0.0119
4,RRIRYRPPRLPRPRPRPQGNPRP,-0.0344
5,RRIRVRPPRLPRPRPRPLTQPRP,0.149
6,RRIRYRPPRLPRPRPRPQSCPRP,0.0148
7,RRIRTRPPRLPRPRPRPDPYPRP,0.001
8,RRIRQRPPRLPRPRPRPYVPPRP,-0.157
9,RRIRLRPPRLPRPRPRPPEIPRP,0.196
10,RRIRPRPPRLPRPRPRPTPPPRP,0.477
11,RRIRTRPPRLPRPRPRPATKPRP,0.0756
12,RRIRPRPPRLPRPRPRPNAYPRP,-0.0709
13,RRIRERPPRLPRPRPRPPLRPRP,0.135
14,RRIRDRPPRLPRPRPRPQNQPRP,-0.0268
15,RRIRPRPPRLPRPRPRPLQPPRP,0.273
16,RRIRLRPPRLPRPRPRPRPHPRP,0.364
17,RRIRIRPPRLPRPRPRPHYGPRP,-0.223
18,RRIRIRPPRLPRPRPRPEDNPRP,-0.138
19,RRIRNRPPRLPRPRPRPRPHPRP,0.226
20,RRIRWRPPRLPRPRPRPGEPPRP,0.271
21,RRIRERPPRLPRPRPRPAHHPRP,-0.338
22,RRIRVRPPRLPRPRPRPTETPRP,0.0324
23,RRIRGRPPRLPRPRPRPAVVPRP,0.488
24,RRIRCRPPRLPRPRPRPGILPRP,-0.233
25,RRIRLRPPRLPRPRPRPNGMPRP,-0.0765

row,Sequence,shrunken log2 fold change
1,RRIRHRPPRLPRPRPRPRMAPRP,0.0651
2,RRIRIRPPRLPRPRPRPEVAPRP,0.218
3,RRIRERPPRLPRPRPRPRTVPRP,0.0995
4,RRIRDRPPRLPRPRPRPWTDPRP,0.023
5,RRIRRRPPRLPRPRPRPHDNPRP,-0.13
6,RRIRDRPPRLPRPRPRPLRFPRP,0.61
7,RRIRWRPPRLPRPRPRPPTPPRP,1.4
8,RRIRLRPPRLPRPRPRPDKLPRP,-0.266
9,RRIRKRPPRLPRPRPRPMYWPRP,-0.111
10,RRIRLRPPRLPRPRPRPHWPPRP,0.00985
11,RRIRHRPPRLPRPRPRPHENPRP,-0.0891
12,RRIRLRPPRLPRPRPRPFQNPRP,-0.0252
13,RRIRHRPPRLPRPRPRPNVEPRP,-0.063
14,RRIRFRPPRLPRPRPRPYDPPRP,-0.0102
15,RRIRQRPPRLPRPRPRPYAYPRP,-0.0214
16,RRIRLRPPRLPRPRPRPGSMPRP,-0.192
17,RRIRARPPRLPRPRPRPGSIPRP,-0.283
18,RRIRGRPPRLPRPRPRPCGDPRP,0.581
19,RRIRSRPPRLPRPRPRPWSRPRP,-0.199
20,RRIRSRPPRLPRPRPRPPNFPRP,0.291
21,RRIRSRPPRLPRPRPRPSAVPRP,0.091
22,RRIRERPPRLPRPRPRPYNEPRP,-0.178
23,RRIRYRPPRLPRPRPRPHVHPRP,-0.00398
24,RRIRQRPPRLPRPRPRPGRDPRP,3.85
25,RRIRQRPPRLPRPRPRPRTKPRP,0.0706
